Data published in the supplement of paper PMC9170038.

Tested on: MS2 coat protein
Assay: apparent KD of MS2 coat protein; designed switch direction (-1 OFF switch, 1 ON switch): -1; higher = weaker reporter binding
Method in brief: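 Designed RNA switches with common flanks were transcribed on Illumina chips by stalled E. coli RNA polymerase and titrated with SNAP-549-labelled MS2 coat protein, from 0.7 or 1.5 nM doubling to 3 µM, in Tris-HCl pH 7.5 buffer with KCl, MgCl2, BSA, DTT, tRNA and Tween-20. Steps lasted 0.8–1.5 h (lowest) to 10–20 min (highest). Titrations ran without input, with 200 uM small-molecule ligand, or with an oligonucleotide input. Normalised cluster fluorescence was curve-fitted, and apparent KD is the per-design median over clusters.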

[1] = input ligand: microRNA oligo, concentration not stated
[2] = Eterna round: R95, input ligand: microRNA oligo, concentration not stated
[3] = Eterna round: R95, input ligand: FMN 200 uM
[4] = Eterna round: R95, input ligand: none

Sequence | apparent KD of MS2 coat protein (input ligand: FMN 200 uM) [nM] | apparent KD of MS2 coat protein (input ligand: none) [nM] | apparent KD of MS2 coat protein [1] [nM] | apparent KD of MS2 coat protein [2] [nM] | apparent KD of MS2 coat protein [3] [nM] | apparent KD of MS2 coat protein [4] [nM]
GAAAACGUAGGAUAUUAAUACUCAGACAUGAGGAUCACCCAUGUUUGGUGGGUUUAAGAAUGAGAAGGGCGAUGAA [EX5 #6] (Eterna round: R97, puzzle: Exclusion 5) | 49 | 49 | – | – | – | –
UUGUUAUAUGUAGGAUAUGCGUGUUAUUAUUAUGCAGAAGGACAUGAGGAUCACCCAUGUGUAUUAUUAUUAUAUAUUAUAUAU [Title] (Eterna round: R96, puzzle: Exclusion NG 1) | – | – | 15.4 | – | – | –
AAAAGCCUAGGAUAUACUUGAGGAUCACCCAAGUAGGGUCGCAUGGACCCGUCCUCGUGUAGAAGGAGGAAAAG [Orreteceer] (Eterna round: R97, puzzle: Exclusion 3) | 108 | 46.7 | – | – | – | –
AUCAGCUCGUGAGGAUAUAUAUACAUGAGGAUCACCCAUGUAAGAUCAGGCUUCGGCCAAUGUAUAUAGAAGGCACGAGCUGAU [ENG2/11-A3] (Eterna round: R96, puzzle: Exclusion NG 2) | 403 | 808 | 535 | – | – | –
GAAAACGCUGAGGAUAUUUCUGAUCAAAGCAGCAAAGAAGGCAGCACAUGAGGAUCACCCAUGUGGUCUUCAAG [Mat - Exclusion 6 - JL Mod - D12] (Eterna round: R97, puzzle: Exclusion 6) | 243 | 44.7 | – | – | – | –
UACUUACGAGGAUAUCGAUUGUGGUACAUGAGGAUCACCCAUGUAUGUGAUAUUGUAUUUCGAGAAGGCGUUCAGU [JR_E5_Sub061] (puzzle: Exclusion 5) | – | – | – | 22.7 | – | –
AUUUAUAAUGUAGGAUAUGGAUUCGAAACGUAUCCAGAAGGACAUGAGGAUCACCCAUGUACAUGAGGAUCACCCAAUUUAUUA [Fiskers ExNg1 - 10] (Eterna round: R96, puzzle: Exclusion NG 1) | 98 | 59.3 | 46.7 | – | – | –
GGUUGUUGUUUCCGUUCUUACAUGAGGAUCACCCAUGUUUCUUGUCGUGCUCGCGUUGCUCGUCUGUCUGUCUGUUG [salish99_TOv1_r3_072] (puzzle: Sensor v3, turn-off variant 1) | – | – | – | 36.2 | 55.7 | 63
CCUGGGUCAUCUCCCAGGAACAACAUGAGGAUCACCCAUGUCUAGGAUAUCCACCAGUCAAUAAAGGAGAAGGAGACGGUGGUU [Onlaxe] (Eterna round: R96, puzzle: Exclusion NG 3) | 22.2 | 19.7 | 14.6 | – | – | –
AGCUGUGGCCGAGGAUAUCUAAAUUCUCAAAACGAAAUAUAAUCGAACAUGAGGAUCACCCAUGUAGAGAAGGCGGUCUCAGCA [Eli eng2 - 032] (Eterna round: R96, puzzle: Exclusion NG 2) | – | – | 34.6 | – | – | –
AAAAGGUCAGGAUAUCGGCGCGGUUGGGAGGCAGGUCCGCGCGAGAAGGGACAUGAGGAUCACCCAUGUUAAAA [Excls4-III] (puzzle: Exclusion 4) | – | – | – | 20.7 | – | –
UUCGCGGAAGGAUAUACAUGAGGAUCACCCAUGUGCUUAUGCGCAACAGCUUCGCAGUGUAGAAGGUUCAGAGU [Eternabot (L1) Solution 3] (Eterna round: R97, puzzle: Exclusion 3) | 18.9 | 23.4 | – | – | – | –
GGUUUAGUAGAGGAUAUGUCACUGUCGCAGGAGACAGAAGGCUGCACAUGAGGAUCACCCAUGUCGGUAAUGAG [Eternabot (L1) Solution 89] (Eterna round: R97, puzzle: Exclusion 6) | 21.8 | 16.3 | – | – | – | –
AAAUUAGCAAGUAGAUCCGACAUGAGGAUCACCCAUGUAAUCUAAUAUUACGCUGCACGAAAGUGCGCUCGUCUUAG [Sensor-V1 #14] (Eterna round: R97, puzzle: Sensor, turn-off variant 1) | 416 | 470 | – | – | – | –
AUUGUUUAUGUAGGAUAUGCCUGGCGUGCCUUUGCAGAAGGACAUGAGGAUCACCCAUGUAUUGCGGUCUGCGUUCAGAUCGCG [salish99_ExNG1_r4_034] (Eterna round: R96, puzzle: Exclusion NG 1) | 46.9 | 27.4 | 22.5 | – | – | –
UUAGAUAGGUCAGGAUAUCGAUGAUUGAAUAGUAUGAUUUACAUGAGGAUCACCCAUGUUUUGUACGAGAAGGGACGUUAGAUU [JR_ExcNG2_Sub020] (Eterna round: R96, puzzle: Exclusion NG 2) | 26.9 | 28.5 | 22.6 | – | – | –
CGUGGCUUUUACGUGAGUGGUGGGUGCAACAGGUGGGUUACAUGAGGAUCACCCAUGUGCUCACUUGCUCGUCUUUU [Grok-var2-10] (puzzle: Sensor v3, turn-off variant 2) | – | – | – | 17.5 | 51.8 | 52.5

Sequence | apparent KD of MS2 coat protein (input ligand: FMN 200 uM) [nM] | apparent KD of MS2 coat protein (input ligand: none) [nM] | apparent KD of MS2 coat protein [1] [nM] | apparent KD of MS2 coat protein [2] [nM] | apparent KD of MS2 coat protein [3] [nM] | apparent KD of MS2 coat protein [4] [nM]
UUACUAUGCCGCCUAAUAGCUUUUUGCUCGUCUUAUAUUACAUGAGGAUCACCCAUGUAGAUCAUGUGGCGUGACCU [JL ViennaUCT Maridi mod 3] (puzzle: Sensor v3, turn-off variant 2) | – | – | – | 42 | 216 | 206
ACAUUGCUAGGAUAUCGCGGUAAGGACAUGAGGAUCACCCAUGUGGUGCCGUGGGAGGCCCGAGAAGGAGCGACCU [Maveonle] (puzzle: Exclusion 5) | – | – | – | 18.1 | – | –
AGUACUAACACGGUUGUGUUAGUACAAUAAGCUUGUGAAACAUGAGGAUCACCCAUGUCCUCAUAAGCUCGUCUUAU [salish99_TOv2_r3_070] (Eterna round: R96, puzzle: Sensor v3, turn-off variant 2) | 15 | 17.3 | 464 | – | – | –
CCGGCUGCUGUGAGGAUAUGCCUGUGGGUGCGUGGGUAGAAGGCACAUGAGGAUCACCCAUGUCCUGCGGUCCC [salish99_bmx4_r4_113] (Eterna round: R97, puzzle: Brourd's mod of Exclusion 4) | 63.9 | 66 | – | – | – | –
UAUGGUUAAGUCAGGAUAUACAAACAGAAAUCUGAGUAGAAGGGACAUGAGGAUCACCCAUGUAUGGUAGUGUU [Ex4 #56] (Eterna round: R97, puzzle: Brourd's mod of Exclusion 4) | 48.6 | 44.6 | – | – | – | –
GAAUACAAGCAAAGAUCCUACAUGAGGAUCACCCAUGUGCUCGUCUUGUAAAGUACUAUCACGAAAGUGAUAGUACA [Mat - Sensor v3 - turn-off var 1 - Eli Mod - D78] (puzzle: Sensor v3, turn-off variant 1) | – | – | – | 16.9 | 76.7 | 60.1
CUAUGUGAUUAGGAUAUUACUGGGCUAUCGCCUUGAGAAGGAGUUACAUGAGGAUCACCCAUGUCAACGCGACC [Eternabot (L2) Solution 44] (Eterna round: R97, puzzle: Exclusion 6) | 17.8 | 19.1 | – | – | – | –
GGUACUAACACGAAAGUGUUAGUACUAUAAGCUUGUGUUACAUGAGGAUCACCCAUGUCCUCAUAAGCUCGUCUUGU [JL-sv3-2.19 mat747 mod] (puzzle: Sensor v3, turn-off variant 2) | – | – | – | 44.2 | 45.4 | 44.9
ACAAGCUUUUUGUUCGUCUUAUAAUAAUAAAUAAAGAUAACAUGAGGAUCACCCAUGUAAAGAAGACGGCCUCAUGU [Sesor Array 20 - Jieux - Sensor v3, turn-off variant 2] (puzzle: Sensor v3, turn-off variant 2) | – | – | – | 233 | 785 | 1120
AAAGAACUAGGAUAUCGCGCUACAGACAUGAGGAUCACCCAUGUAAUCGCAUGUCAAGUUUGAGAAGGAGUGAAGA [Usissodi] (puzzle: Exclusion 5) | – | – | – | 11.9 | 21.5 | 9.9
UUAGAUAGGUCAGGAUAUCGAUGAUUGAAUUGUAUGAUUUACAUGAGGAUCACCCAUGUUUUGUACGAGAAGGGACGUUAGAUU [JR_ExcNG2_Sub018] (Eterna round: R96, puzzle: Exclusion NG 2) | 26.7 | 37.2 | 17.6 | – | – | –
AGAAGUAGUAUCCGAUCCUACAUGAGGAUCACCCAUGUAGCUAGACGUGCACGCGAUGCUCGUCAGACUACCAGAUG [salish99_TOv1_r3_030] (puzzle: Sensor v3, turn-off variant 1) | – | – | – | 205 | 156 | 405
GGAAAACAUGAGGAUCACCCAUGUAAGGAUAUGCAAAAGGAUAUAGAAGGAAGAAAAAGCAGAAGGUACAAAGG [salish99-ex1_r3_099] (puzzle: Exclusion 1) | – | – | – | 44.8 | 72.1 | 57.9
UUUUAGGUAGGAUAUACAUUUUUUUUAUUAUCCUCAUUAUUACAUGAGGAUCACCCAUGUAGAAGGACCAUUUU [My Design] (puzzle: Exclusion 2) | – | – | – | 181 | – | –
GUAAACGAUCAGGAUAUAUCAAAUCAUAGCUUGAUAGAAGGGAUCACAUGAGGAUCACCCAUGUGAUCUUCUUA [Mat - Exclusion 6 - JL Mod - D36] (Eterna round: R97, puzzle: Exclusion 6) | 13 | 10.9 | – | – | – | –
AGUAAGCUAGGAUAUGCUUAGGGAAAGCCUUCCUUCCACAAACUUGAGGAUCACCCAAGUAGAAGGAGCUAAAU [jl-ex2.4.46 ViennaUCT mod] (Eterna round: R97, puzzle: Exclusion 2) | 15.4 | 13.5 | – | – | – | –
UUCUUACAUGAGGAUCACCCAUGUCAGGAUAUCUCCACACUGCGCUUGCGCAGUGUAUAGAGAAGGGACAGGCU [JL ViennaUCT Aner mod 5] (puzzle: Exclusion 1) | – | – | – | 40.7 | – | –
